Our source for the TLR activity (EC50, ng/ml); IL-8 secretion by HEK293 cells values is patent US20070224205A1.

The target in the assay is Toll-like Receptor 5 (UniProt O60602). Description: cell-based or functional assay.

B1: STF2.HA1-1His(PR8), produced in Baculovirus (protein)
chain: AQVINTNSLSLLTQNNLNKSQSALGTAIERLSSGLRINSAKDDAAGQAIANRFTANIKGLTQASRNANDGISIAQTTEGALNEINNNLQRVRELAVQSANSTNSQSDLDSIQAEITQRLNEIDRVSGQTQFNGVKVLAQDNTLTIQVGANDGETIDIDLKQINSQTLGLDSLNVQKAYDVKDTAVTTKAYANNGTTLDVSGLDDAAIKAATGGTNGTASVTGGAVKFDADNNKYFVTIGGFTGADAAKNGDYEVNVATDGTVTLAAGATKTTMPAGATTKTEVQELKDTPAVVSADAKNALIAGGVDATDANGAELVKMSYTDKNGKTIEGGYALKAGDKYYAADYDEATGAIKAKTTSYTAADGTTKTAANQLGGVDGKTEVVTIDGKTYNASKAAGHDFKAQPELAEAAAKTTENPLQKIDAALAQVDALRSDLGAVQNRFNSAITNLGNTVNNLSEARSRIEDSDYATEVSNMSRAQILQQAGTSVLAQANQVPQNVLSLLASGSGSGSSHNGKLCRLKGIAPLQLGKCNIAGWLLGNPECDPLLPVRSWSYIVETPNSENGICYPGDFIDYEELREQLSSVSSFERFEIFPKESSWPNHNTNGVTAACSHEGKSSFYRNLLWLTEKEGSYPKLKNSYVNKKGKEVLVLWGIHHPPNSKEQQNLYQNENAYVSVVTSNYNRRFTPEIAERPKVRDQAGRMNYYWTLLKPGDTIIFEANGNLIAPMYAFALSRGFGSGIITSNASMHECNTKCQTPLGAINSSLPYQNIHPVTIGECPKYVRHHHHHH
Molecule B1 returned a TLR activity (EC50, ng/ml); IL-8 secretion by HEK293 cells of 3 ng/mL.
